A word on the Kd: it is the free concentration of one partner at which half of the binding sites on the other are occupied at equilibrium, for simple one-to-one binding.

Common to all, as to settings: remark: other sources report otherwise
The target of test [1] is T1, s-H1-mini2-cluster1 + 5 + 6-GCN4 (A/Brisbane/59/2007) (influenza A virus H1N1).
In test [2] the target is T1, s-H1-mini2-cluster1 + 5 + 6-GCN4 …. Briefly: BLI steady state titration, 1:1 model.
For test [3], the target named is H1-mini2-cluster1 + 5 + 6-trim (influenza A virus H1N1), A8C8J4. Briefly: FACS. For orientation: Flow cytometry measures light scatter and fluorescence of single cells or particles in a stream.
Test [4] concerns the target mini2-cluster11 + 5 + 6 (A/Brisbane/59/2007) (influenza A virus H1N1), A8C8J4. The test can be described thus: FACS.
Test [5] concerns the target mini2-cluster1 + 5 (A/Brisbane/59/2007) (influenza A virus H1N1), A8C8J4. The test can be described thus: FACS.
The target of test [6] is miniHA cluster1 (A/Brisbane/59/2007) (influenza A virus H1N1), A8C8J4. Briefly: FACS.
The target in test [7] is mini2 cluster11 + 5 (A/Brisbane/59/2007) (influenza A virus H1N1), A8C8J4. The test can be described thus: FACS.

B1: CR6261 (antibody, V domains shown)
VH: EVQLVESGAEVKKPGSSVKVSCKASGGPFRSYAISWVRQAPGQGPEWMGGIIPIFGTTKYAPKFQGRVTITADDFAGTVYMELSSLRSEDTAMYYCAKHMGYQVRETMDVWGKGTTVTVSS
VL: QSVLTQPPSVSAAPGQKVTISCSGSSSNIGNDYVSWYQQLPGTAPKLLIYDNNKRPSGIPDRFSGSKSGTSATLGITGLQTGDEANYYCATWDRRPTAYVVFGGGTKLTVLG
With B1, in test [1], the BLI maximum response turned out to be 0.25 nm. Besides, in test [2], the Kd was determined as 190 nM. In addition, the % positive cells in test [3] was determined as 80%; in test [4], 80%; in test [5], 80%; in test [6] it was 60%; in test [7], 80%. Besides, in test [3], the fold reduction of MFI against SEQ ID NO: 46 lay within 3 to 4 fold. The figures for the MFI relative to full-length HA in test [6] and in test [7] were 10% and 50%, respectively.

For the origin of these results see patent publication US20140357845A1.
